This is an account of results in US20240190989A1 (BEIGENE SWITZERLAND, published 2024).

Numbering of substitutions follows the chain as printed. Like-named read-outs stand apart in the source and are kept apart here.

For experiment [1], the target named is T1, full-length human CEA on cells (MKN45, LOVO, L929/huCEA, CT26/CEA, CT26-OS8-CEA) (human, UniProt P06731 35-685).
T1 construct: also called CEACAM5; native CEA
T1 sequence: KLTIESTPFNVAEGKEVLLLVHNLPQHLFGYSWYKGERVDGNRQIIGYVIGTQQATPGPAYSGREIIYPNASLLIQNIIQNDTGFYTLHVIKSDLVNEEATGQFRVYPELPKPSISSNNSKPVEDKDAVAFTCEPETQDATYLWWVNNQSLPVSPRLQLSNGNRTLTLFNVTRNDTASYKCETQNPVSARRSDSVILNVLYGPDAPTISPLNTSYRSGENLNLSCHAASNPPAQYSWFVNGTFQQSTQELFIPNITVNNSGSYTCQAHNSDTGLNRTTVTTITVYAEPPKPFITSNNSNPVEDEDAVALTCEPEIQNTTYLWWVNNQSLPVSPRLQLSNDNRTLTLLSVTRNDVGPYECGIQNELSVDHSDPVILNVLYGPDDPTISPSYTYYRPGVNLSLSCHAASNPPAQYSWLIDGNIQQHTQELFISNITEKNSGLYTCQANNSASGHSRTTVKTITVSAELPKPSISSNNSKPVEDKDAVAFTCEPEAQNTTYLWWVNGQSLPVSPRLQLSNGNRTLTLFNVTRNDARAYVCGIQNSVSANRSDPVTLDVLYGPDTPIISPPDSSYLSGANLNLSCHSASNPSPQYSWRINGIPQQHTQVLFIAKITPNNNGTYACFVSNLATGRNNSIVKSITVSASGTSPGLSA
Briefly: flow cytometry on CT26/CEA cells.

The target of experiment [2] is T2, human CD137 ECD-mIgG2a (human).
T2 construct: ECD 24-183 of huCD137 fused to mouse IgG2a Fc; also called huCD137-mIgG2a; huCD137
T2 sequence (chain, as listed by the source limits assumed): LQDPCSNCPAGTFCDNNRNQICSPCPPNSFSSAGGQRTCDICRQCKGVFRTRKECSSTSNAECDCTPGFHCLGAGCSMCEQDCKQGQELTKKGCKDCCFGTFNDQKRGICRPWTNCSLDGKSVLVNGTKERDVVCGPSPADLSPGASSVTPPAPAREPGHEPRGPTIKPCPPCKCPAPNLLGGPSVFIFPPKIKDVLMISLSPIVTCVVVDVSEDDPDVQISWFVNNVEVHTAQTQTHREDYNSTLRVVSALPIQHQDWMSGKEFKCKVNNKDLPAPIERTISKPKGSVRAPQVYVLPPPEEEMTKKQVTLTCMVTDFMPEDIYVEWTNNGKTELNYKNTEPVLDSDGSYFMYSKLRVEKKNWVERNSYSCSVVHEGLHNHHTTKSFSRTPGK
Nature of the experiment: SPR, human CD137 ECD-mIgG2a.

Experiment [3] has as its target T3, full-length human CD137 on cells (Hut78/huCD137, HEK293 transfectants, JK-NFKB-CD137) (human, UniProt Q07011 24-255).
T3 construct: also called native CD137; TNFRSF9
Briefly: flow cytometry on Hut78/huCD137 cells.

Experiment [4] deals with T3, full-length human CD137 on cells …. Nature of the experiment: cell-based or functional assay.
Experiment [5] addresses T4, soluble human CEA, amino acids 1-687 of huCEA with C-terminal 6xHis tag (human, UniProt P06731 35-687).
T4 construct: also called sCEA; soluble huCEA
T4 sequence: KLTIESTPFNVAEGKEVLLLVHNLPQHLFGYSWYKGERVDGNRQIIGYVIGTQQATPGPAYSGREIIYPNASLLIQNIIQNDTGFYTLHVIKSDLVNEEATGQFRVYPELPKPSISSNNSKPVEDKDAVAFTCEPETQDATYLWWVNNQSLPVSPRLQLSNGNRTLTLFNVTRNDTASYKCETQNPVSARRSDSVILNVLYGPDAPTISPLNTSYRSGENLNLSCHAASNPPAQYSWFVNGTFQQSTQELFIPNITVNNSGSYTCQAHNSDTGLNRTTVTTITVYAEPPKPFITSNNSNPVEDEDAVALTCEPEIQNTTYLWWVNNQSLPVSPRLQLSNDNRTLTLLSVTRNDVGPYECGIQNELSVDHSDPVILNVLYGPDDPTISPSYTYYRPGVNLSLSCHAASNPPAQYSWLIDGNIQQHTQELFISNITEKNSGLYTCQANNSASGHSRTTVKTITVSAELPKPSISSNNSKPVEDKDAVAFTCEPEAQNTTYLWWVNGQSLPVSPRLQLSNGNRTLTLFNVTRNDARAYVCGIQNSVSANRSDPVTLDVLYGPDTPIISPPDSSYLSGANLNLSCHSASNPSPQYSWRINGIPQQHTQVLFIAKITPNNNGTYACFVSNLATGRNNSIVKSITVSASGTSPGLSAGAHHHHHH
Briefly: flow cytometry on MKN45 cells, 2 µg/ml antibody, competitor 20 µg/ml recombinant soluble CEA in solution.

The target in experiment [6] is T3, full-length human CD137 on cells …. Nature of the experiment: flow cytometry on Hut78/huCD137 cells. This is another data set of the same source.
Experiment [7] deals with T2, human CD137 ECD-mIgG2a. Nature of the experiment: SPR, Fc fusion VH.
Experiment [8] concerns the target T2, human CD137 ECD-mIgG2a. Briefly: SPR, Fc-fusion VH captured.

T3 sequence (Q07011 24-255 limits assumed): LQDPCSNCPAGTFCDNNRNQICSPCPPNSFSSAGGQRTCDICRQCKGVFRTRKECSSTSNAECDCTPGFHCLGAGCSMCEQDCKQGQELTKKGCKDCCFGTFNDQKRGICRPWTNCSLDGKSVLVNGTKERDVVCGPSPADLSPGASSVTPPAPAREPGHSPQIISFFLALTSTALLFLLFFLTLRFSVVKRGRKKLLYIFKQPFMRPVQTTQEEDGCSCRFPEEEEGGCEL

B1: A-CD137/CEA (Format A: BGA-4712 VH fused to the C-terminus of the Fc of the anti-CEA antibody) (bispecific antibody, human IgG1, kappa)
heavy: QVQLVQSGAEVKKPGASVKVSCKASGYIFTSYYLHWVRQAPGQGLEWIGYINPQTGKTSYAQKFQGRVTMTRDTSTSTVYMELSSLRSEDTAVYYCAREYGNYNYPLDYWGQGTLVTVSSASTKGPSVFPLAPSSKSTSGGTAALGCLVKDYFPEPVTVSWNSGALTSGVHTFPAVLQSSGLYSLSSVVTVPSSSLGTQTYICNVNHKPSNTKVDKKVEPKSCDKTHTCPPCPAPPAAGPSVFLFPPKPKDTLMISRTPEVTCVVVDVSHEDPEVKFNWYVDGVEVHNAKTKPREEQYNSTYRVVSVLTVLHQDWLNGKEYKCKVSNKALAAPIEKTISKAKGQPREPQVYTLPPSREEMTKNQVSLTCLVKGFYPSDIAVEWESNGQPENNYKTTPPVLDSDGSFFLYSKLTVDKSRWQQGNVFSCSVMHEALHNHYTQKSLSLSPGKGGGGSEVQLLESGGGLVQPGGSLRLSCAASGFMLSAEDVGWVRQAPGKGLEWVSAILDFGGSTYYADSVKGRFTISRDNSKNTLYLQMNSLRAEDTAVYYCARVVYHAGGGVTFDYWGQGTLVTVSS
light: DIQMTQSPSSLSASVGDRVTITCRASENQYGYLAWYQQKPGKVPKLLIYNYKNLVEGVPSRFSGSGSGTDFTLTISSLQPEDVATYYCQHHLGTPYTFGQGTKVEIKRTVAAPSVFIFPPSDEQLKSGTASVVCLLNNFYPREAKVQWKVDNALQSGNSQESVTEQDSKDSTYSLSSTLTLSKADYEKHKVYACEVTHQGLSSPVTKSFNRGEC
notes: Symmetric IgG-like molecule, inert Fc; also called A-CEAxCD137; A-CEA/CD137
B1: the half-maximal effective concentration (EC50) in experiment [1] is 0.75 µg/mL; in experiment [3], 0.57 µg/mL. In the experiment with human CD137 ECD-mIgG2a [2], this molecule returned a dissociation constant Kd of 360 nM.

B2: D-CD137/CEA (Format D: BGA-4712 VH fused to the N-terminus of the heavy chain of the anti-CEA antibody) (bispecific antibody, human IgG1, kappa)
heavy: EVQLLESGGGLVQPGGSLRLSCAASGFMLSAEDVGWVRQAPGKGLEWVSAILDFGGSTYYADSVKGRFTISRDNSKNTLYLQMNSLRAEDTAVYYCARVVYHAGGGVTFDYWGQGTLVTVSSSGGGGSQVQLVQSGAEVKKPGASVKVSCKASGYIFTSYYLHWVRQAPGQGLEWIGYINPQTGKTSYAQKFQGRVTMTRDTSTSTVYMELSSLRSEDTAVYYCAREYGNYNYPLDYWGQGTLVTVSSASTKGPSVFPLAPSSKSTSGGTAALGCLVKDYFPEPVTVSWNSGALTSGVHTFPAVLQSSGLYSLSSVVTVPSSSLGTQTYICNVNHKPSNTKVDKKVEPKSCDKTHTCPPCPAPPAAGPSVFLFPPKPKDTLMISRTPEVTCVVVDVSHEDPEVKFNWYVDGVEVHNAKTKPREEQYNSTYRVVSVLTVLHQDWLNGKEYKCKVSNKALAAPIEKTISKAKGQPREPQVYTLPPSREEMTKNQVSLTCLVKGFYPSDIAVEWESNGQPENNYKTTPPVLDSDGSFFLYSKLTVDKSRWQQGNVFSCSVMHEALHNHYTQKSLSLSPGK
light: B1 light
notes: Symmetric IgG-like molecule, inert Fc; also called D-CEAxCD137
For B2, the 50% effective concentration (EC50) in experiment [1] worked out at 3.78 µg/mL; in experiment [3], 2.28 µg/mL. In the experiment with human CD137 ECD-mIgG2a [2], binding was put at a Kd of 78 nM.

B3: BE-755 (ZW1+2) (bispecific antibody, human IgG1, L234A L235A)
heavy: QVQLVQSGAEVKKPGASVKVSCKASGYIFTSYYLHWVRQAPGQGLEWIGYINPQTGKTSYAQKFQGRVTMTRDTSTSTVYMELSSLRSEDTAVYYCAREYGNYNYPLDYWGQGTLVTVSSASTKGPSVFPLAPSSKSTSGGTAWLGCEVTDYFPEPVTVSWNSGALTSGVHTFPAVLESSGLYSLSSVVTVPSSSLGTQTYICNVNHKPSNTKVDKKVEPKSCDKTHTCPPCPAPEAAGGPSVFLFPPKPKDTLMISRTPEVTCVVVSVSHEDPEVKFNWYVDGVEVHNAKTKPREEQYNSTYRVVSVLTVLHQDWLNGKEYKCKVSNKALPAPIEKTISKAKGQPREPQVYVLPPSRDELTKNQVSLLCLVKGFYPSDIAVEWESNGQPENNYLTWPPVLDSDGSFFLYSKLTVDKSRWQQGNVFSCSVMHEALHNHYTQKSLSLSPGK
light: B1 light with F116A, Q124R, L135V, T178R
chain: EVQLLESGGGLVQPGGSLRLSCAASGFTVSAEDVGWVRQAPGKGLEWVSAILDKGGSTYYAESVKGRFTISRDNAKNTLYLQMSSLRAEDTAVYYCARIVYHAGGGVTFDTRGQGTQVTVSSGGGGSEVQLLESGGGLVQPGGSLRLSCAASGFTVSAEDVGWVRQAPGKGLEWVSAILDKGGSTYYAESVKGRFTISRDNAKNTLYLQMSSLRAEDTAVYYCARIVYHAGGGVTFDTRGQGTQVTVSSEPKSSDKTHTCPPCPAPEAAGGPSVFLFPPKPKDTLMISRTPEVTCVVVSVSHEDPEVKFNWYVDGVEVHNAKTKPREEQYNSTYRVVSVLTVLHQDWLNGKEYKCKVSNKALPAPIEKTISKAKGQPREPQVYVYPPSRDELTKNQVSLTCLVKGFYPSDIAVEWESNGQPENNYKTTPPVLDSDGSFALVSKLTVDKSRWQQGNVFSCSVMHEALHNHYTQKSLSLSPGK
With B3, the “Functional assay EC50 (PBMC cytokine release, in vitro CD137 activation)” value in experiment [4] was 1.16 µg/mL.

B4: BGA288 (antibody, V domains shown)
VH: EVLLQQSGPELVKPGASVKIFCKASGYTFTDYNIDWVQQSHGKSLEWIGDIGPNYGGTIYNQKFKGKATLTVAKSSSTAYMELRSLTSEDTAVYYCARRGSIPRAVDYWGQGTSVTVSS
VL: DIKMTQSPSSMYASLGERVTITCKASQDIHNYLSWFQQKPGKSPKTLIYRANRLVDGVPSRFSGSGSGQDYSLTISSLEYEDMGIYYCLQYDEFPYTFGGGTKLEIK
As to B4, the binding result in experiment [5] is recorded as “binds”.

B5: BGA190 (antibody, V domains shown)
VH: DVQLVESGGGLVQPGGSRELSCAASGFTFSSFGMHWVRQAPERGLEWVAYISIGSDIIYYADTVKGRFTISRDNPKNTLFLQMTSLRSEDTAVYYCTRRSYRSYWYFDVWGAGTTVTVSS
VL: DIQMTQSPASLSASVGETVTITCRTSENIYSYLAWYQQKQGKSPHLLVYNAKTLAEGVPSRFSGSGSGTQFSLKIISLQPEDFGTYYCQHHFLSPWMFGGGTKLEIK
In the case of B5, the binding result in experiment [5] was “binds”.

B6: BGA-4712-M3-mutFc (Fc fusion VH) (Fc fusion)
chain: EVQLLESGGGLVQPGGSLRLSCAASGFTLSAEDVGWVRQAPGKGLEWVSAILDFGGSTYYAESVKGRFTISRDNAKNTLYLQMSSLRAEDTAVYYCARVVYHAGGGVTFDYWGQGTLVTVSSGGGGSDKTHTCPPCPAPPAAGPSVFLFPPKPKDTLMISRTPEVTCVVVDVSHEDPEVKFNWYVDGVEVHNAKTKPREEQYNSTYRVVSVLTVLHQDWLNGKEYKCKVSNKALAAPIEKTISKAKGQPREPQVYTLPPSREEMTKNQVSLTCLVKGFYPSDIAVEWESNGQPENNYKTTPPVLDSDGSFFLYSKLTVDKSRWQQGNVFSCSVMHEALHNHYTQKSLSLSPGK
Regarding B6, in experiment [6], the EC50 came to 2.37 µg/mL. Further, the dissociation constant (Kd) with human CD137 ECD-mIgG2a [7] and with human CD137 ECD-mIgG2a [8] was 169 nM throughout.

B7: BGA-7556-mutFc (Fc fusion VH) (Fc fusion)
chain: B6 chain with W112R, L117Q
Take B7: it took 5.71 µg/mL to reach a half-maximal effect in experiment [6] (EC50). Moreover, the Kd with human CD137 ECD-mIgG2a [7] and with human CD137 ECD-mIgG2a [8] was 200 nM throughout.
